± gives the uncertainty stated by the source.
Assay: self-splicing fitness, log relative to wild type (ln ratio); higher = more splicing; Tetrahymena group I intron in knt gene, E. coli kanamycin selection, DiMSum; sequences stand for … in CUCUCU…GGAGGGAAAAGUUAUCAGGCAUGCACCUGGUAGCUAGUCUUUAAACCAAUAGAUUGCAUCGGUUUAAAAGGCAAGACCGUCAAAUUGCGGGAAAGGGGUCAACAGCCGUUCAGUACCAAGUCUCAGGGGAAACUUUGAGAUGGCCUUGCAAAGGGUAUGGUAAUAAGCUGACGGACAUGGUCCUAACCACGCAGCCAAGUCCUAAGUCAACAGAUCUUCUGUUGAUAUGGAUGCAGUUCACAGACUAAAUGUCGGUCGGGGAAGAUGUAUUCUUCUCAUAAGAUAUAGUCGGACCUCUCCUUAAUGGGAGCUAGCGGAUGAAGUGAUGCAACACUGGAGCCGCUGGGAACUAAUUUGUAUGCGAAAGUAUAUUGAUUAGUUUUGGAGUACUCGUGGUCG
Outline: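 Six replicate transformations of E. coli BL21(DE3) with a pET-22b(+) library were grown overnight at 37°C or 30°C. The library randomised all eight P1ex-region intron nucleotides, the intron lying in the knt kanamycin-resistance gene, and plates were LB agar with or without 25 μg/mL kanamycin plus 100 μg/mL carbenicillin, 50 μM IPTG and 0.2% rhamnose. Pooled colonies were amplicon-sequenced on an Illumina HiSeq 2500, and fitness is the DiMSum error-weighted combination of wild-type-normalised replicate fold changes, kanamycin versus none.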

Row | Sequence | self-splicing fitness (ln) (30 °C) | self-splicing fitness (ln) (37 °C)
1 | UCACAGCAAUAUUACGUCUA | -1.25 ± 0.077 | -0.331 ± 0.075
2 | UCAGAGCAAUAUUACGAAGU | -3.13 ± 0.33 | 
3 | UCAGAGCAAUAUUACGACAU | -4.002 ± 0.035 | -2.6 ± 0.045
4 | UCAGAGCAAUAUUACGACUG | -1.67 ± 0.19 | -0.645 ± 0.2
5 | UCAGAGCAAUAUUACGAUGU | -1.87 ± 0.077 | -1.41 ± 0.093
6 | UCAGAGCAAUAUUACGCAAA | -1.85 ± 0.23 | -2.03 ± 0.46
7 | UCAGAGCAAUAUUACGCAAU | -2.77 ± 0.24 | -3.06 ± 0.35
8 | UCAGAGCAAUAUUACGCUGC |  | -0.708 ± 0.32
9 | UCAGAGCAAUAUUACGGAAC | -2.43 ± 0.2 | -2.49 ± 0.26
10 | UCAGAGCAAUAUUACGGCGC | -1.6 ± 0.2 | -2.6 ± 0.45
11 | UCAGAGCAAUAUUACGGCGU | -3.42 ± 0.22 | -2.05 ± 0.18
12 | UCAGAGCAAUAUUACGUCAA | -3.81 ± 0.4 | -2.13 ± 0.23
13 | UCAGAGCAAUAUUACGUCAC | -2.51 ± 0.18 | 
14 | UCAGAGCAAUAUUACGUCGA | -1.11 ± 0.072 | -0.44 ± 0.11
15 | UCAGAGCAAUAUUACGUCUU | -3.53 ± 0.32 | -2.53 ± 0.36
16 | UCAGAGCAAUAUUACGUUAU | -2.84 ± 0.19 | -3.42 ± 0.4
17 | UCAGAGCAAUAUUACGUUUC | -3.15 ± 0.23 | -3.04 ± 0.38
18 | UCAUAGCAAUAUUACGAACG | -0.967 ± 0.085 | -0.602 ± 0.12
19 | UCAUAGCAAUAUUACGACCA | -0.368 ± 0.34 | -0.568 ± 0.31
20 | UCAUAGCAAUAUUACGAGAG | -2.96 ± 0.24 | -2.44 ± 0.22
21 | UCAUAGCAAUAUUACGCAAC | -3.77 ± 0.39 | -1.48 ± 0.32
22 | UCAUAGCAAUAUUACGCAGC | -3.15 ± 0.35 | -1.03 ± 0.23
23 | UCAUAGCAAUAUUACGCGAA | -2.95 ± 0.23 | -1.51 ± 0.15
24 | UCAUAGCAAUAUUACGCGCA | 0.0597 ± 0.12 | 0.225 ± 0.12
25 | UCAUAGCAAUAUUACGCGGU | -3.43 ± 0.25 | -2.2 ± 0.25

Row | Sequence | self-splicing fitness (ln) (30 °C) | self-splicing fitness (ln) (37 °C)
26 | UCAUAGCAAUAUUACGCUAG | -3.15 ± 0.22 | -1.34 ± 0.2
27 | UCAUAGCAAUAUUACGCUCG | -0.651 ± 0.15 | -0.277 ± 0.17
28 | UCAUAGCAAUAUUACGCUGG | -3.05 ± 0.19 | -2.3 ± 0.16
29 | UCAUAGCAAUAUUACGGAGA | -1.95 ± 0.17 | -0.994 ± 0.13
30 | UCAUAGCAAUAUUACGGCCC |  | -1.11 ± 0.43
31 | UCAUAGCAAUAUUACGGCUA | -2.69 ± 0.27 | -2.37 ± 0.39
32 | UCAUAGCAAUAUUACGGGCU |  | -2.19 ± 0.32
33 | UCAUAGCAAUAUUACGGUGU | -3.51 ± 0.21 | -1.27 ± 0.13
34 | UCAUAGCAAUAUUACGUAAC | -3.57 ± 0.37 | -1.6 ± 0.31
35 | UCAUAGCAAUAUUACGUACG | -1.57 ± 0.12 | -0.499 ± 0.13
36 | UCAUAGCAAUAUUACGUCUG | -1.16 ± 0.081 | -0.895 ± 0.1
37 | UCAUAGCAAUAUUACGUCUU | -3.28 ± 0.24 | -3.53 ± 0.32
38 | UCAUAGCAAUAUUACGUGCA | -1.06 ± 0.082 | 0.377 ± 0.092
39 | UCAUAGCAAUAUUACGUGCC | -3.48 ± 0.41 | -1.34 ± 0.23
40 | UCAUAGCAAUAUUACGUUGA | -3.91 ± 0.29 | -2.75 ± 0.16
41 | UCCAAGCAAUAUUACGAACC | -1.65 ± 0.25 | 
42 | UCCAAGCAAUAUUACGAUGC | -2.69 ± 0.31 | 
43 | UCCAAGCAAUAUUACGCCCG | -2.32 ± 0.26 | 
44 | UCCAAGCAAUAUUACGCGUA | -0.121 ± 0.056 | 0.286 ± 0.06
45 | UCCAAGCAAUAUUACGCGUU | -4.5 ± 0.19 | -2.33 ± 0.15
46 | UCCAAGCAAUAUUACGCUGU | -2.3 ± 0.14 | -2.25 ± 0.17
47 | UCCAAGCAAUAUUACGCUUU | -3.8 ± 0.18 | -2.16 ± 0.19
48 | UCCAAGCAAUAUUACGGCGC | -2.4 ± 0.14 | -2.5 ± 0.15
49 | UCCAAGCAAUAUUACGGGAU | -3.88 ± 0.22 | -2.52 ± 0.16
50 | UCCAAGCAAUAUUACGGGUA | -0.53 ± 0.062 | 0.199 ± 0.066

Row | Sequence | self-splicing fitness (ln) (30 °C) | self-splicing fitness (ln) (37 °C)
51 | UCCAAGCAAUAUUACGGUUG | -3.43 ± 0.13 | -3.04 ± 0.19
52 | UCCAAGCAAUAUUACGUAAU | -1.94 ± 0.11 | -0.725 ± 0.14
53 | UCCAAGCAAUAUUACGUACC | -2.68 ± 0.19 | -2.18 ± 0.26
54 | UCCAAGCAAUAUUACGUCAU | -3.09 ± 0.14 | -1.39 ± 0.11
55 | UCCAAGCAAUAUUACGUGAC | -3.7 ± 0.3 | -3.17 ± 0.35
56 | UCCCAGCAAUAUUACGAAAA | -2.38 ± 0.2 | -0.834 ± 0.18
57 | UCCCAGCAAUAUUACGAACG | -2.94 ± 0.31 | -2.39 ± 0.29
58 | UCCCAGCAAUAUUACGAAUA | -2.11 ± 0.1 | -1.42 ± 0.11
59 | UCCCAGCAAUAUUACGACCC | -2.89 ± 0.31 | -2.44 ± 0.35
60 | UCCCAGCAAUAUUACGAGCU | -3.05 ± 0.17 | -2.18 ± 0.2
61 | UCCCAGCAAUAUUACGAUAU | -3.15 ± 0.18 | -1.74 ± 0.22
62 | UCCCAGCAAUAUUACGAUGA | -0.0138 ± 0.055 | 0.23 ± 0.069
63 | UCCCAGCAAUAUUACGCAAG | -3.45 ± 0.16 | -2.69 ± 0.21
64 | UCCCAGCAAUAUUACGCACA | -1 ± 0.071 | -0.318 ± 0.095
65 | UCCCAGCAAUAUUACGCACC |  | -1.21 ± 0.35
66 | UCCCAGCAAUAUUACGCCCA | -1.5 ± 0.18 | -0.396 ± 0.14
67 | UCCCAGCAAUAUUACGCUAC |  | -2.27 ± 0.32
68 | UCCCAGCAAUAUUACGCUGG | -3.94 ± 0.16 | -2.62 ± 0.16
69 | UCCCAGCAAUAUUACGCUUC | -2.73 ± 0.19 | -2.76 ± 0.48
70 | UCCCAGCAAUAUUACGCUUG | -3.31 ± 0.15 | -2.4 ± 0.19
71 | UCCCAGCAAUAUUACGGCAA | -0.595 ± 0.1 | 0.128 ± 0.11
72 | UCCCAGCAAUAUUACGGGAG | -3.44 ± 0.14 | -2.01 ± 0.11
73 | UCCCAGCAAUAUUACGGGCA | -0.512 ± 0.082 | -0.2 ± 0.097
74 | UCCCAGCAAUAUUACGGUCA | -0.0309 ± 0.062 | 0.226 ± 0.072
75 | UCCCAGCAAUAUUACGUAUC | -3.32 ± 0.29 | -1.35 ± 0.2

Row | Sequence | self-splicing fitness (ln) (30 °C) | self-splicing fitness (ln) (37 °C)
76 | UCCCAGCAAUAUUACGUCUA | -2.5 ± 0.21 | -2.12 ± 0.22
77 | UCCCAGCAAUAUUACGUUCC | -2.26 ± 0.21 | -2.44 ± 0.27
78 | UCCGAGCAAUAUUACGAGAA | -1.91 ± 0.35 | -2.27 ± 0.38
79 | UCCGAGCAAUAUUACGAGAU | -3.41 ± 0.24 | -2.02 ± 0.29
80 | UCCGAGCAAUAUUACGAUUA | -1.94 ± 0.28 | -1.72 ± 0.26
81 | UCCGAGCAAUAUUACGCACA | -3.21 ± 0.22 | -0.221 ± 0.13
82 | UCCGAGCAAUAUUACGCAUG | -2.8 ± 0.32 | -2.36 ± 0.3
83 | UCCGAGCAAUAUUACGCCCA | -4.21 ± 0.36 | -2.83 ± 0.35
84 | UCCGAGCAAUAUUACGCCUC |  | -1.34 ± 0.33
85 | UCCGAGCAAUAUUACGCGAC | -2.63 ± 0.41 | -1.58 ± 0.4
86 | UCCGAGCAAUAUUACGCGGU | -3.33 ± 0.26 | -1.58 ± 0.17
87 | UCCGAGCAAUAUUACGGAAC | -2.97 ± 0.33 | 
88 | UCCGAGCAAUAUUACGGAUG | -4.09 ± 0.35 | -1.77 ± 0.2
89 | UCCGAGCAAUAUUACGGCAA | -1.43 ± 0.11 | -0.233 ± 0.13
90 | UCCGAGCAAUAUUACGGCGA | -0.0162 ± 0.1 | -0.0341 ± 0.12
91 | UCCGAGCAAUAUUACGGGAG | -3.81 ± 0.22 | -2.79 ± 0.19
92 | UCCGAGCAAUAUUACGGGGA | -1.93 ± 0.15 | -0.603 ± 0.11
93 | UCCGAGCAAUAUUACGGUAA | -2.21 ± 0.18 | -1.08 ± 0.12
94 | UCCGAGCAAUAUUACGGUCC | -3.08 ± 0.24 | -3.35 ± 0.33
95 | UCCGAGCAAUAUUACGUGCG | -3.49 ± 0.43 | -2.63 ± 0.34
96 | UCCGAGCAAUAUUACGUUGG | -3.33 ± 0.21 | -1.78 ± 0.24
97 | UCCUAGCAAUAUUACGAAUG |  | -2.76 ± 0.44
98 | UCCUAGCAAUAUUACGAGAG | -3.57 ± 0.17 | -2.51 ± 0.2
99 | UCCUAGCAAUAUUACGAGUU | -3.71 ± 0.3 | -1.24 ± 0.18
